In PMC8152469:

Target: MobK-6His (Klebsiella pneumoniae (plasmid pIGRK))
Experiment: cross-linking; about 400 ng MobK-6His incubated with increasing glutaraldehyde (0%, 0.001%, 0.0025%, 0.005%, 0.025%, 0.05%); SDS-PAGE and Western blot with anti-6His antibody; monomer to dimer

MobK-6His (enzyme) was tested, and the stoichiometry N was 2.
